Substrate in data set [1]: O=P(O)(O)O[C@H]1O[C@H](CO)[C@@H](O)[C@H](O)[C@H]1O
Put plainly: coupled assay with glc-6-P dehydrogenase (NADP reduction). It counts as biochemical, Corynebacterium glutamicum. Particulars: 100 mM Tris/HCl pH 7.4, 10 mM MgCl2, 1 mM NADP, 2 units glc-6-P dehydrogenase, glc-1-P 0.05–20 mM.

Data set [2] deals with the molecule itself. Put plainly: SEC; HiLoad XK16/60 Superdex 200 PrepGrade, 0.02 M sodium phosphate, 0.15 M NaCl, pH 7.4, 0.5 ml/min; fractions screened by Pgm activity; retention volume compared with standard proteins (LMW and HMW calibration kits). Background: In gel filtration, larger molecules generally elute earlier.

B1: phosphoglucomutase Pgm (main Pgm isoenzyme, encoded by pgm, cg2800) of Corynebacterium glutamicum (enzyme, UniProt Q8NMN0 1-554, looked up)
chain: MAHERAGQLAQPEDLIDVAELVTAYFTRKPDVNNPDQQVAFGTSGHRGSALDSAFNEDHILATTQAIVDYRNQQPKNWVGPLFIGRDTHALSEPAMISALEVLIANDVEVLVDADGRYTPTPAVSHAILRHNDGIILGTAGPSRPYADGIVITPSHNPPRDGGFKYNPANGGPADTDATDWIANRANDILRGDLADVKRVPVSGVLDERTTAYDFKGIYIADLPNVVNIDAIREAGVRIGADPMGGASVDYWGAIAETHGLNLTVVNPHVDSTFRFMTLDTDGKIRMDCSSPHAMASLIDNRDKFDVATGNDADADRHGIVTPDAGLMNPNHYLAVAIEYLFAHRPGWSADTAVGKTLVSSSMIDRVVAQLGRTLVEVPVGFKWFVPGLISGEIGFGGEESAGASFLRMDGTTWSTDKDGLILDLLAAEIIAVTGKTPSQRYAELAEEFGAPAYARTDAEANREQKAILKALSPEQVTATELAGEAITAKLTEAPGNGAAIGGLKVTTENAWFAARPSGTEDKYKIYAESFKGEEHLAQVQKEAQALVSEVLGQ
notes: Phosphoglucomutase Pgm of Corynebacterium glutamicum, ORF cg2800 (pgm), native enzyme; band of approx. 60 kDa on SDS/PAGE assigned to cg2800 by MALDI-TOF-MS peptide fingerprinting; Endogenous, untagged enzyme; the final gel filtration fraction still held a second band (approx. 80 kDa, cg2523, malQ); also called α-Pgm; pgm gene product
B1: the Km (usually the substrate concentration at which the rate is half of its maximum) in data set [1] came to 1410 ± 230 µM. In data set [2], the stoichiometry N (in general, the number of molecules, sites or subunits per partner or assembly) stood at 2.

The values are drawn from PMC3755335, “Inactivation of the phosphoglucomutase gene pgm in Corynebacterium glutamicum affects cell shape and glycogen metabolism” (Bioscience Reports, 2013).
